In PMC6125123 one finds ratio of GFP fluorescence intensity on pattern elements over total fluorescence intensity (background 1.1) data, which are given here for one substance.

The target in this assay is HA-K^b (H-2K^b heavy chain with an N-terminal HA tag, no GFP) (mus musculus). The assay can be described thus: two-hybrid antibody micropattern assay (co-capture on live cells, confocal fluorescence microscopy); HA-tagged bait captured on printed anti-HA (12CA5) micropatterns on glass; GFP-tagged prey read out; co-transduced STF1 cells, 25°C overnight, then shifted to 37°C for 3-4 hr to dissociate …; no peptide.
Sequence of HA-K^b (H-2K^b heavy chain with an N-terminal HA tag, no GFP) (mus musculus) (P01901 22-369): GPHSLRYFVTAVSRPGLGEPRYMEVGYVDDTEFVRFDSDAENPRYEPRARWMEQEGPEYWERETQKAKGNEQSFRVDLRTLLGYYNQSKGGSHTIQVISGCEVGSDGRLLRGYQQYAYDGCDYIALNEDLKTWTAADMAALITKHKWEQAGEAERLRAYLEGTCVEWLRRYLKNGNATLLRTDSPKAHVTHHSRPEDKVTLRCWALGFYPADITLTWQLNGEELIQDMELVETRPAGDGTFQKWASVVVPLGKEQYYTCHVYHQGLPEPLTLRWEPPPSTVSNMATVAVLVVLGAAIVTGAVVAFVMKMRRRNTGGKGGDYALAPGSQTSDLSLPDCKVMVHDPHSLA

For “K^b-GFP (H-2K^b heavy chain with GFP fused to the cytoplasmic tail, no HA tag) (natural protein)”, the ratio of GFP fluorescence intensity on pattern elements over total fluorescence intensity (background 1.1) was determined as 1.3.
